Consider two variants from IntAct's records for PubMed 19570982.

B1: Fibulin-5 (Homo sapiens), Q9UBX5 (parent)
chain: MPGIKRILTVTILALCLPSPGNAQAQCTNGFDLDRQSGQCLDIDECRTIPEACRGDMMCVNQNGGYLCIPRTNPVYRGPYSNPYSTPYSGPYPAAAPPLSAPNYPTISRPLICRFGYQMDESNQCVDVDECATDSHQCNPTQICINTEGGYTCSCTDGYWLLEGQCLDIDECRYGYCQQLCANVPGSYSCTCNPGFTLNEDGRSCQDVNECATENPCVQTCVNTYGSFICRCDPGYELEEDGVHCSDMDECSFSEFLCQHECVNQPGTYFCSCPPGYILLDDNRSCQDINECEHRNHTCNLQQTCYNLQGGFKCIDPIRCEEPYLRISDNRCMCPAENPGCRDQPFTILYRDMDVVSGRSVPADIFQMQATTRYPGAYYIFQIKSGNEGREFYMRQTGPISATLVMTRPIKGPREIQLDLEMITVNTVINFRGSSVIRLRIYVSQYPF

The variants in the assay derive from B1. To be noted: with eln_human ELN.
In the case of C217R, the “effect of a mutation on the interaction” value is “decreasing interaction”.

Take S227P: the “effect of a mutation on the interaction” value was “decreasing interaction”.
